Legend:
[1] = target: Taq DNA polymerase (rTaq) (Thermus aquaticus) (UniProt P19821); assay: FP_none
[2] = target: Tth DNA polymerase (rTth) (Thermus thermophilus) (UniProt P52028); assay: filter
[3] = target: Taq DNA polymerase (rTaq) (Thermus aquaticus) (UniProt P19821); assay: filter; conditions: room temperature

Chain of Tth DNA polymerase (rTth) (Thermus thermophilus) (P52028 whole entry): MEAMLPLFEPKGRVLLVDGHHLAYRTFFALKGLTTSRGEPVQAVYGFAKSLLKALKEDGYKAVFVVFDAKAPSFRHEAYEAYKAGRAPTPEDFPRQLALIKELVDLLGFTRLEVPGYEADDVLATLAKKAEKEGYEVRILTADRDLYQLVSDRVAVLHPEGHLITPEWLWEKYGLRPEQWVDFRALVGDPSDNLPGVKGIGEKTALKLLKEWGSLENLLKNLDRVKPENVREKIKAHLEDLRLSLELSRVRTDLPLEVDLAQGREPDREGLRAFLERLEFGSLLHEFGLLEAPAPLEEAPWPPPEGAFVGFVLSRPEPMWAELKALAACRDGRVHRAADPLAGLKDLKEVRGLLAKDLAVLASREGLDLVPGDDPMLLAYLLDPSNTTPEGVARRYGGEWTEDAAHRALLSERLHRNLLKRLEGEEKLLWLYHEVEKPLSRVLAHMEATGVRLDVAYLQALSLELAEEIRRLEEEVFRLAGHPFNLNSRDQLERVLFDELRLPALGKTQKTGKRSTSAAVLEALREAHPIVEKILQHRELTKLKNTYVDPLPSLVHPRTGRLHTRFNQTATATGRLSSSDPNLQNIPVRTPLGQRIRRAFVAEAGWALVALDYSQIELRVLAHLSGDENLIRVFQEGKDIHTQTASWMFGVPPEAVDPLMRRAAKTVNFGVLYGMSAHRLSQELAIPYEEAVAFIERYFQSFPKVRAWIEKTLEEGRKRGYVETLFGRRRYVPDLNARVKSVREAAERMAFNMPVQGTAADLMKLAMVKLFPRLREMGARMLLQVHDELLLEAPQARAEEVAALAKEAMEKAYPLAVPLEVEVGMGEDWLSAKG
Chain of Taq DNA polymerase (rTaq) (Thermus aquaticus) (P19821 whole entry): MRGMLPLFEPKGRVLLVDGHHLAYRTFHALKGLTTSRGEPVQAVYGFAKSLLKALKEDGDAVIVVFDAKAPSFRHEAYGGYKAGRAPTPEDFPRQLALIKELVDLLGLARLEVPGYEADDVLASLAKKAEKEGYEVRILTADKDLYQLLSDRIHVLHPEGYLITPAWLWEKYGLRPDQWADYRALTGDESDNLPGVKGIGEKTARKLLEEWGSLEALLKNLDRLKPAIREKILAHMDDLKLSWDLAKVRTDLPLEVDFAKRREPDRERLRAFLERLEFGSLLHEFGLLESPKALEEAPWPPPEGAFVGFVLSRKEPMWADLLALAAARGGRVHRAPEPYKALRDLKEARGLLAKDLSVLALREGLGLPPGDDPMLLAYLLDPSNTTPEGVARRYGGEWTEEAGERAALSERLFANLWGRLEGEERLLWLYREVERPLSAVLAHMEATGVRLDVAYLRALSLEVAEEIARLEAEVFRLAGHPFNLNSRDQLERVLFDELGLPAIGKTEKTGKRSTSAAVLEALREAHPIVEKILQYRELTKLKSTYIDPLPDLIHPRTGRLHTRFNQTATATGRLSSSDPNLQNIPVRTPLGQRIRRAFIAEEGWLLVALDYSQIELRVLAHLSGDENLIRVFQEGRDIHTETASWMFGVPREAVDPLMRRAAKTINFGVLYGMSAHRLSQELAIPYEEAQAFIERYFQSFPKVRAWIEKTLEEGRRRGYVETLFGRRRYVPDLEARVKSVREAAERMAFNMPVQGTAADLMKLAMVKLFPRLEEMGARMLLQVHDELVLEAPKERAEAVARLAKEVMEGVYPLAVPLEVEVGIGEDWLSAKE

Which Kd [1] does the source give for “TTCTCGGTTGGTCTCTGGCGGAGCNNNNNNNNNNNNNNNNNNNNNNNNNNNNNNTCTTGTGTATGATTCGCTTTTCCC [Taq-enriched ssDNA pool (round 12)]” here?
The Kd was 3.5 nM.

And the Kd ([2]; cross binding of Taq-selected pool, room temperature)?
Its Kd is 0.2 nM.

For “TTCTCGGTTGGTCTCTGGCGGAGCNNNNNNNNNNNNNNNNNNNNNNNNNNNNNNTCTTGTGTATGATTCGCTTTTCCC [Tth-enriched ssDNA pool (round 10)]”, which Kd ([3]; cross binding of Tth-selected pool, saturates at about 50%, about half of pool not interacting) is on record?
The Kd was 0.3 nM.

And the Kd ([2]; 50 mM Bicine-KOH pH 8.3, 90 mM KCl, 3.5 mM Mn(OAc)2, tRNA, 0.01% hSA, room temperature)?
The Kd was 5 nM.

“TTCTCGGTTGGTCTCTGGCGGAGCNNNNNNNNNNNNNNNNNNNNNNNNNNNNNNTCTTGTGTATGATTCGCTTTTCCC [unselected random 30N ssDNA pool]” was tested. Which Kd ([3]; unselected pool, 10 mM Tris-HCl pH 8.3, 50 mM KCl, 2.5 mM MgCl2, tRNA, 0.01% hSA) did it give?
Its Kd is greater than 50 nM.

What about the Kd ([2]; unselected pool, Bicine-KOH pH 8.3, 90 mM KCl, 3.5 mM Mn(OAc)2, room temperature) of the same sequence?
The Kd was 70 nM.

— patent US5693502
